Measurements taken from patent publication US20170174777A1 (PROTHENA BIOSCIENCE, published 2017).

What was measured:
[1] = target: T1, wild-type human alpha-synuclein (human, UniProt P37840 1-140); assay: ELISA on alpha-synuclein, OD against ng/mL of antibody
[2] = target: T1, wild-type human alpha-synuclein; assay: SPR (Biacore), antibody captured on anti-human IgG chip, alpha-synuclein flowed over, 1:1 model global fit
Method: An anti-human IgG CMS Biacore chip was prepared following the protocol supplied by GE Healthcare.
Data were collected and double reference subtracted to account for drift and a small amount of nonspecific binding. The data were analyzed using Biacore evaluation software using a 1:1 model and a global fit.

Binder | binding result [1] | Kd [2] [nM]
humanized 5C1 antibody version H1L1 (antibody, V domains shown, Only variable regions are tied to this version) VH: QVQLVQSGAELKKPGSSVKVSCKASGYTFTNYWMNWVRQAPGQGLEWIGATNPNNGYTDYNQRFKDRATLTADKSTNTAYMELSSLRSEDTAVYYCARGGHLAYWGQGTLVTVSS VL: DVVMTQSPLSLSVSPGEPASISCRSSQSLFHSKGNTYLHWYLQKPGQSPKLLINRVSNRFSGVPDRFSGSGSGTDFTLKISRVEAEDVGVYFCSQSAHVPWTFGGGTKVEIK | no binding (tested: 1000 ng/mL) | 
humanized 5C1 antibody version H3L4 (antibody, V domains shown, Only variable regions are tied to this version; also called h5C1_H3L4) VH: QVQLVQSGAELKKPGSSVKVSCKASGYTFTNYWMNWVRQAPGQGLEWIGATNPNNGYTDYNQRFKDRATLTADKSTNTAYMELSSLRSEDTAVYFCASGGHLAYWGQGTLVTVSS VL: DIVMTQSPLSLSVSPGEPASISCRSSQSLFHSKGNTYLHWYLQKPGQSPQLLIYRVSNRFSGVPDRFSGSGSGTDFTLKISRVEAEDVGVYYCSQSAHVPWTFGGGTKVEIK |  | 1240
humanized 5C1 antibody version H5L4 (antibody, V domains shown, Only variable regions are tied to this version; also called h5C1_H5L4) VH: QVQLVQSGAELKKPGSSVKVSCKASGYTFTNYWMNWVRQAPGQGLEWIGATNPNNGYTDYNQRFKDRVTITADKSTNTAYMELSSLRSEDTAVYYCASGGHLAYWGQGTLVTVSS VL: DIVMTQSPLSLSVSPGEPASISCRSSQSLFHSKGNTYLHWYLQKPGQSPQLLIYRVSNRFSGVPDRFSGSGSGTDFTLKISRVEAEDVGVYYCSQSAHVPWTFGGGTKVEIK |  | 1060
humanized 5C1 antibody version H4L4 (antibody, V domains shown, Only variable regions are tied to this version; also called h5C1_H4L4) VH: QVQLVQSGAELKKPGSSVKVSCKASGYTFTNYWMNWVRQAPGQGLEWIGATNPNNGYTDYNQRFKDRATLTADKSTNTAYMELSSLRSEDTAVYYCASGGHLAYWGQGTLVTVSS VL: DIVMTQSPLSLSVSPGEPASISCRSSQSLFHSKGNTYLHWYLQKPGQSPQLLIYRVSNRFSGVPDRFSGSGSGTDFTLKISRVEAEDVGVYYCSQSAHVPWTFGGGTKVEIK |  | 601
